Measured values published in US20100261245.

Test system: T1, VEGF, P15692-4
T1 sequence: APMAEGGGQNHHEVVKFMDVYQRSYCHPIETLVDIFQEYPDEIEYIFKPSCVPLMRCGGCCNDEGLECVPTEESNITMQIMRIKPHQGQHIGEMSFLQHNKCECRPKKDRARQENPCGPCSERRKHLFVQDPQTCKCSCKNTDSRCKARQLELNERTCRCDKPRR
Assay: SPR
Conditions: BIAcore 2000, VEGF immobilized, aptamer 30-500 nM

Sequence	Kd (2'-OMe at all positions as printed, 5'-PEG 20 kDa (mPEG-SPA via 5' amine), PBS pH 7.4)	Kd (2'-OMe at all positions as printed (Am, Um, Gm, Cm), 5' terminal amine group stated for the PEGylation precursor, PBS pH 7.4 stated for the PEGylated aptamer)
AUGCAGUUUGAGAAGUCGCGCAU [PEGylated anti-VEGF 2'-OMe-RNA aptamer]	87 nM	
AUGCAGUUUGAGAAGUCGCGCAU [anti-VEGF 2'-OMe-RNA aptamer]		1.87 nM
